The target in one assay is ErbB3 on cancer cells (UniProt P21860 20-1342, limits assumed). The experiment in a line: cell-based or functional assay.
Assay [1] addresses T1, recombinant human ErbB3 protein (R&D systems) (human, UniProt P21860 20-643).
T1 construct: Bought recombinant protein; also called HER3
The experiment in a line: BLI (Octet QK384), human ErbB3 immobilized on AR2G sensor, IgG at 12.5-50 nM. Here is the method: After activation of carboxyl groups in 20 mM of 1-ethyl-3-(3-dimethylaminopropyl)carbodiimide hydrochloride (EDC) and 40 mM of N-hydroxysulfosuccinimide (sulfo-NHS) solution on an AR2G sensor (ForteBio), 10 μg/mL of human ErbB3 protein solution diluted with 10 mM of sodium acetate (pH 4.0) (ForteBio) was added to immobilize human ErbB3 protein onto the AR2G sensor. The AR2G sensor to which the human ErbB3 protein was immobilized and was treated with 1 M of ethanolamine (ForteBio) to inactivate the remaining unreacted carboxyl groups.

B1: 472P (antibody, V domains shown)
VH: EVQLLESGGGLVQPGGSLRLSCAASGFTFSDYDMSWVRQAPGKGLEWVSGISYDGGNTYYADSVKGRFTISRDNSKNTLYLQMNSLRAEDTAVYYCARDPSWCLQDLCYYADGMDVWGQGTLVTVSS
VL: QSVLTQPPSASGTPGQRVTISCSGSSSNIGSNSVSWYQQLPGTAPKLLIYADSNRPSGVPDRFSGSKSGTSASLAISGLRSEDEADYYCGSWDYSLSGYVFGGGTKLTVLG
notes: IgG1 (Selexis 085 vector, CHO); also called anti-ErbB3 lead antibody 472P
For B1, in the assay with ErbB3 on cancer cells, the “Inhibition of ErbB3 phosphorylation, IC50 (HRG-stimulated MCF7 cells)” value (“Inhibition of ErbB3 phosphorylation” below) was determined as 1.45 nM. For the same molecule, in assay [1], the Kd was 0.284 nM, the koff worked out at 0.000508 s⁻¹ and the kon amounted to 1.79e+06 M⁻¹ s⁻¹.

B2: 451M4 (antibody, V domains shown)
VH: EVQLLESGGGLVQPGGSLRLSCAASGFTFSYYDMSWVRQAPGKGLEWVSAIYYDSGSIYYADSAKGRFTISRDNSKNTLYLQMNSLRAEDTAVYYCAKDRLFASDSTFDYWGQGTLVTVSS
VL: QSVLTQPPSASGTPGQRVTISCSGSPSNIGNNSVTWYQQLPGTAPKLLIYYDSHRPSGVPDRFSGSKSGTSASLAISGLRSEDEADYYCGSWDASLNGYVFGGGTKLTVLG
notes: IgG1 (Selexis 085 vector, CHO)
As to B2, in assay [1], the Kd came to 0.00612 nM, the koff was 1.23e-05 s⁻¹ and the kon turned out to be 2.01e+06 M⁻¹ s⁻¹.

B3: 451M7 (antibody, V domains shown)
VH: EVQLLESGGGLVQPGGSLRLSCAASGFTFSYYDMSWVRQAPGKGLEWVSAIYYDSGSIYYADSAKGRFTISRDNSKNTLYLQMNSLRAEDTAVYYCAKDRLFESDSTFDYWGQGTLVTVSS
VL: QSVLTQPPSASGTPGQRVTISCSGSPSNIGNNSVTWYQQLPGTAPKLLIYYDSHRPSGVPDRFSGSKSGTSASLAISGLRSEDEADYYCGSWDASLNGYVFGGGTKLTVLG
notes: as for B2
Take B3: in assay [1], the Kd is 0.00492 nM, the koff worked out at 6.63e-06 s⁻¹ and the kon amounted to 1.35e+06 M⁻¹ s⁻¹.

B4: 451M5 (antibody, V domains shown)
VH: EVQLLESGGGLVQPGGSLRLSCAASGFTFSDYDMSWVRQAPGKGLEWVSAIYYDSGSIYYADSAKGRFTISRDNSKNTLYLQMNSLRAEDTAVYYCAKDRLFESDSTFDYWGQGTLVTVSS
VL: QSVLTQPPSASGTPGQRVTISCSGSPSNIGNNSVTWYQQLPGTAPKLLIYYDSHRPSGVPDRFSGSKSGTSASLAISGLRSEDEADYYCGSWDASLNGYVFGGGTKLTVLG
notes: as for B2
With B4, in assay [1], the Kd is 0.0217 nM, the koff came out at 3.29e-05 s⁻¹ and the kon is 1.52e+06 M⁻¹ s⁻¹.

B5: 451M3 (antibody, V domains shown)
VH: EVQLLESGGGLVQPGGSLRLSCAASGFTFSHYDMSWVRQAPGKGLEWVSAIYYDSGSIYYADSAKGRFTISRDNSKNTLYLQMNSLRAEDTAVYYCAKDRLFASDSTFDYWGQGTLVTVSS
VL: QSVLTQPPSASGTPGQRVTISCSGSPSNIGNNSVTWYQQLPGTAPKLLIYYDSHRPSGVPDRFSGSKSGTSASLAISGLRSEDEADYYCGSWDASLNGYVFGGGTKLTVLG
notes: as for B2
On to B5, for which, in assay [1], the Kd was less than 0.001 nM, the koff is 2.3e-07 s⁻¹ and the kon was determined as 1.87e+06 M⁻¹ s⁻¹.

B6: 472S2 (antibody, V domains shown)
VH: EVQLLESGGGLVQPGGSLRLSCAASGFTFSWYDLAWVRQAPGKGLEWVSGISYDGGNTYYADSVKGRFTISRDNSKNTLYLQMNSLRAEDTAVYYCARDPSWCLQDLCYYADGMDVWGQGTLVTVSS
VL: QSVLTQPPSASGTPGQRVTISCSGSSSNIGSNSVSWYQQLPGTAPKLLIYADSNRPSGVPDRFSGSKSGTSASLAISGLRSEDEADYYCGSWDYSLSGYVFGGGTKLTVLG
notes: as for B2
On to B6, for which, in the assay with ErbB3 on cancer cells, the “Inhibition of Akt phosphorylation, IC50 (HRG-stimulated MCF7 cells)” value (shortened to “Inhibition of Akt phosphorylation, IC50”) amounted to 0.195 nM and the “Inhibition of ErbB3 phosphorylation” value worked out at 0.148 nM. In assay [1], the Kd is less than 0.001 nM, the koff was less than 1e-07 s⁻¹ and the kon came out at 1.07e+06 M⁻¹ s⁻¹.

B7: 451M6 (antibody, V domains shown)
VH: EVQLLESGGGLVQPGGSLRLSCAASGFTFSHYDMSWVRQAPGKGLEWVSAIYYDSGSIYYADSAKGRFTISRDNSKNTLYLQMNSLRAEDTAVYYCAKDRLFESDSTFDYWGQGTLVTVSS
VL: QSVLTQPPSASGTPGQRVTISCSGSPSNIGNNSVTWYQQLPGTAPKLLIYYDSHRPSGVPDRFSGSKSGTSASLAISGLRSEDEADYYCGSWDASLNGYVFGGGTKLTVLG
notes: as for B2
As for B7, in assay [1], the Kd was 0.00347 nM, the koff came out at 4.17e-06 s⁻¹ and the association rate constant (kon) was found to be 1.2e+06 M⁻¹ s⁻¹.

B8: 472M1 (antibody, V domains shown)
VH: EVQLLESGGGLVQPGGSLRLSCAASGFTFSWYDLSWVRQAPGKGLEWVSGISYDGGNTYYADSVKGRFTISRDNSKNTLYLQMNSLRAEDTAVYYCARDPSWCLQDLCYYADGMDVWGQGTLVTVSS
VL: QSVLTQPPSASGTPGQRVTISCSGSSSNIGSNSVSWYQQLPGTAPKLLIYADSNRPSGVPDRFSGSKSGTSASLAISGLRSEDEADYYCGSWDYSLSGYVFGGGTKLTVLG
notes: as for B2
As to B8, in the assay with ErbB3 on cancer cells, the “Inhibition of Akt phosphorylation, IC50” value came to 0.246 nM and the “Inhibition of ErbB3 phosphorylation” value is 0.276 nM. Besides, in assay [1], the Kd was 0.0125 nM, the koff was found to be 1.74e-05 s⁻¹ and the kon was found to be 1.39e+06 M⁻¹ s⁻¹.

B9: 442P (antibody, V domains shown)
VH: EVQLLESGGGLVQPGGSLRLSCAASGFTFSDYDMSWVRQAPGKGLEWVSSIYPDSGSTYYADSVQGRFTISRDNSKNTLYLQMNSLRAEDTAVYYCAKDLHMGPEGPFDYWGQGTLVTVSS
VL: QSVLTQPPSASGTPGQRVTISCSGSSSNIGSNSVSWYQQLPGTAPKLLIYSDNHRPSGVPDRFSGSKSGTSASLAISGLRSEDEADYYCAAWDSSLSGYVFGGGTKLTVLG
notes: as for B2
Consider B9, for which, in the assay with ErbB3 on cancer cells, the “Inhibition of ErbB3 phosphorylation” value is 1.05 nM. Moreover, in assay [1], the Kd amounted to 0.283 nM, the koff amounted to 0.000352 s⁻¹ and the kon was determined as 1.25e+06 M⁻¹ s⁻¹.

B10: 442M6 (antibody, V domains shown)
VH: EVQLLESGGGLVQPGGSLRLSCAASGFTFSDYDMSWVRQAPGKGLEWVSSIEPDSGSTDYADSVQGRFTISRDNSKNTLYLQMNSLRAEDTAVYYCAKDRHMWPEGPFDYWGQGTLVTVSS
VL: QSVLTQPPSASGTPGQRVTISCSGSSSNIGSNSGSWYQQLPGTAPKLLIYADNWRPSGVPDRFSGSKSGTSASLAISGLRSEDEADYYCAAWDSSLSGYVFGGGTKLTVLG
notes: as for B2
Regarding B10, in the assay with ErbB3 on cancer cells, the “Inhibition of Akt phosphorylation, IC50” value amounted to 0.304 nM and the “Inhibition of ErbB3 phosphorylation” value is 0.271 nM. Further, in assay [1], the Kd was 0.0201 nM, the koff is 1.95e-05 s⁻¹ and the kon was 969000 M⁻¹ s⁻¹.

B11: 442S5 (antibody, V domains shown)
VH: EVQLLESGGGLVQPGGSLRLSCAASGFTFSDYDMSWVRQAPGKGLEWVSIIEPDSGSIYYADSVQGRFTISRDNSKNTLYLQMNSLRAEDTAVYYCAKDLHMGPEGPFDYWGQGTLVTVSS
VL: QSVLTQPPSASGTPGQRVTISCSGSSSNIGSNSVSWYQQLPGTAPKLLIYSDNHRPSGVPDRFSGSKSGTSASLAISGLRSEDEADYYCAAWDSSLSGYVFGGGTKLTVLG
notes: as for B2
B11: in the assay with ErbB3 on cancer cells, the “Inhibition of Akt phosphorylation, IC50” value worked out at 0.167 nM and the “Inhibition of ErbB3 phosphorylation” value was determined as 0.0854 nM. Further, in assay [1], the Kd came out at 0.0175 nM, the koff is 2.74e-05 s⁻¹ and the kon came out at 1.57e+06 M⁻¹ s⁻¹.

B12: 442S1 (antibody, V domains shown)
VH: EVQLLESGGGLVQPGGSLRLSCAASGFTFSDYDMSWVRQAPGKGLEWVSTIDLDSGSIYYADSVQGRFTISRDNSKNTLYLQMNSLRAEDTAVYYCAKDLHMGPEGPFDYWGQGTLVTVSS
VL: QSVLTQPPSASGTPGQRVTISCSGSSSNIGSNSVSWYQQLPGTAPKLLIYSDNHRPSGVPDRFSGSKSGTSASLAISGLRSEDEADYYCQGWDTSLSGHVFGGGTKLTVLG
notes: as for B2
As for B12, in the assay with ErbB3 on cancer cells, the “Inhibition of Akt phosphorylation, IC50” value was determined as 0.239 nM and the “Inhibition of ErbB3 phosphorylation” value is 0.222 nM. Moreover, in assay [1], the Kd is less than 0.001 nM, the koff is 3.94e-07 s⁻¹ and the kon amounted to 522000 M⁻¹ s⁻¹.

The values above are taken from US20180085455A1 (ISU ABXIS, published 2018).
